Test results published in paper PMC10666276 (Biochemistry, 2023).

How the values were obtained:
[1] = tested on: NC(=O)c1ccc[n+]([C@@H]2O[C@H](COP(=O)(O)OP(=O)(O)OC[C@H]3O[C@@H](n4cnc5c4ncn4ccnc54)[C@H](O)[C@@H]3O)[C@@H](O)[C@H]2O)c1; test: purified protein; details: 50 mM sodium acetate pH 5.5, 150 mM NaCl, 500 μM CaCl2, 25 °C, 10 ng enzyme
Excerpt: fluorometric hydrolysis assay, Michaelis-Menten fit on AfNADase

[2] = biological target: AfNADase^D219A/E220A (Aspergillus fumigatus) (UniProt Q4WL81); test: crystal structure
[3] = biological target: the molecule itself; test: SEC

AfNADase (Aspergillus fumigatus Af293)
Km [1]: 54.8 ± 15.3 µM
Vmax [1]: 4570 µmol/min/mg

AfNADase^D219A/E220A (from UniProt Q4WL81) (enzyme)
stoichiometry N [2]: 2

B1: Aspergillus fumigatus NADase (AfNADase), wild type (enzyme)
chain: LQHTEDSLFPARCWPDPCAGITFQNDTYVCGDPRLGPVVLPQKFPLNNELRTYARFGALCPAEFLDKWATDVAPNGTYIYPPANGFALDTEEQPILGNATLPVGMKLDRFGSEYGTFLAPLGAPYIERSLPPSNLNTFDGMYPYNYHVYQVTKEFVVGLGPIAPWFEQPGMGTQFVTYTNVLGLIDDGYLRRLDESEYDEKVEYSNPYTPGPNQ
modifications: N-linked glycosylation sites (as observed in the wild-type structure 6YGE)
binding result [3]: binds
